Laboratory results: the supplement of paper PMC10065799, “High-throughput profiling of sequence recognition by tyrosine kinases and SH2 domains using bacterial peptide display” (eLife, 2023)

Tests used:
[1] = system: AncSZ; assay: phosphorylation enrichment, bacterial display (enrichment ratio); higher = better substrate or ligand; peptides without Tyr show the background
[2] = target: EPHB1 (UniProt P54762); assay: as above
[3] = target: EPHB2 (UniProt P29323); assay: as above
[4] = target: FGFR1 (UniProt P11362); assay: as above
[5] = target: FGFR3 (UniProt P22607); assay: as above
[6] = system: Fer (mouse); assay: as above
[7] = target: Fes (UniProt P07332); assay: as above
Sequence of Fes (P07332 whole entry, looked up): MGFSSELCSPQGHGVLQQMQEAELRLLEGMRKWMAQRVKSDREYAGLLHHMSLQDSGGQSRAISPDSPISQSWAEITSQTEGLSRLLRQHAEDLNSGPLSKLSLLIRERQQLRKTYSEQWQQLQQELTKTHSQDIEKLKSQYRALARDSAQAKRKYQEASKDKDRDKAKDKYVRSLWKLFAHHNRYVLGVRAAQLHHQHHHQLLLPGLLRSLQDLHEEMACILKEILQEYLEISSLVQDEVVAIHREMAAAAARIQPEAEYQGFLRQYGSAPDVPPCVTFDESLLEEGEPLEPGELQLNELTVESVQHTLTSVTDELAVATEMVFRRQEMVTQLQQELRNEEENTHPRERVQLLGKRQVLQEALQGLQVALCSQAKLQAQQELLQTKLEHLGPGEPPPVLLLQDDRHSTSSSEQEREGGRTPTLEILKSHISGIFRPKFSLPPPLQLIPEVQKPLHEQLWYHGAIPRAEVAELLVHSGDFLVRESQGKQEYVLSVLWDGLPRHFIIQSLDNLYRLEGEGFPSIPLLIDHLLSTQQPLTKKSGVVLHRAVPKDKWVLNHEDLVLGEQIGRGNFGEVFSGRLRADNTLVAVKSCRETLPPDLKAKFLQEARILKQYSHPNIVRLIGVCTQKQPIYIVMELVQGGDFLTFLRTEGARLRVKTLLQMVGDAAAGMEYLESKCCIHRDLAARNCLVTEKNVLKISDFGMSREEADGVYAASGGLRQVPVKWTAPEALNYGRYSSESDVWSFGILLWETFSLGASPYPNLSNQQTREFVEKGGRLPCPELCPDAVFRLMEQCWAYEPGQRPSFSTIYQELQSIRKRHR

[8] = target: Fyn (UniProt P06241); assay: as above
Sequence of Fyn (P06241 whole entry, looked up): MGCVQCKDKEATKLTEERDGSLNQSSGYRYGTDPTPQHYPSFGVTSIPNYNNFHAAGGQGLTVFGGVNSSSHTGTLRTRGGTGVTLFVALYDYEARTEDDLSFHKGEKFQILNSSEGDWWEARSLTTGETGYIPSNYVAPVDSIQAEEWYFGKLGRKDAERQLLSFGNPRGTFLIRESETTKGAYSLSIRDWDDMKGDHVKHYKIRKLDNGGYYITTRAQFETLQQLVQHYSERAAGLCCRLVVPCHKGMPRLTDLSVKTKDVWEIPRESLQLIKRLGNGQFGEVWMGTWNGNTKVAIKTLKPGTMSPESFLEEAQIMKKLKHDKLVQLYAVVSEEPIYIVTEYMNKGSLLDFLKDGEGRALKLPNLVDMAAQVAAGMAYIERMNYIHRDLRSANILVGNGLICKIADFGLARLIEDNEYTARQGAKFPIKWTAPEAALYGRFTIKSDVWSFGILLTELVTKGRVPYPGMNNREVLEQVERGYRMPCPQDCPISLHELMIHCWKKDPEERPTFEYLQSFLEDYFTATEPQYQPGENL

[9] = target: Hck (UniProt P08631); assay: as above
Sequence of Hck (P08631 whole entry, looked up): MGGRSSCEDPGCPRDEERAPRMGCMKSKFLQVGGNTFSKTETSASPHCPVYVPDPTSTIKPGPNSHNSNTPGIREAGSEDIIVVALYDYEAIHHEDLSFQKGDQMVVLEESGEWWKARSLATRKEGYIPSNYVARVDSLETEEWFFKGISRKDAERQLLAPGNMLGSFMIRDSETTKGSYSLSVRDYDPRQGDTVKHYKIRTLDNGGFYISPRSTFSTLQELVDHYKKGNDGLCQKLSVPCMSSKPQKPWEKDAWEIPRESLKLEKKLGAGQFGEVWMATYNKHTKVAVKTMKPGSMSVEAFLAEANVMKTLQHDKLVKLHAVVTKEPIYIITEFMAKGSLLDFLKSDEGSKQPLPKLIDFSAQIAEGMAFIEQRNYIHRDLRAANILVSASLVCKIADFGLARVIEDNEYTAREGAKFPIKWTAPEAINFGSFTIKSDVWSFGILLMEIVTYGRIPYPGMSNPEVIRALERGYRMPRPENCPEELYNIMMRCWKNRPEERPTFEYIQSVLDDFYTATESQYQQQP

[10] = target: Jak2 (UniProt O60674); assay: as above
Sequence of Jak2 (O60674 whole entry, looked up): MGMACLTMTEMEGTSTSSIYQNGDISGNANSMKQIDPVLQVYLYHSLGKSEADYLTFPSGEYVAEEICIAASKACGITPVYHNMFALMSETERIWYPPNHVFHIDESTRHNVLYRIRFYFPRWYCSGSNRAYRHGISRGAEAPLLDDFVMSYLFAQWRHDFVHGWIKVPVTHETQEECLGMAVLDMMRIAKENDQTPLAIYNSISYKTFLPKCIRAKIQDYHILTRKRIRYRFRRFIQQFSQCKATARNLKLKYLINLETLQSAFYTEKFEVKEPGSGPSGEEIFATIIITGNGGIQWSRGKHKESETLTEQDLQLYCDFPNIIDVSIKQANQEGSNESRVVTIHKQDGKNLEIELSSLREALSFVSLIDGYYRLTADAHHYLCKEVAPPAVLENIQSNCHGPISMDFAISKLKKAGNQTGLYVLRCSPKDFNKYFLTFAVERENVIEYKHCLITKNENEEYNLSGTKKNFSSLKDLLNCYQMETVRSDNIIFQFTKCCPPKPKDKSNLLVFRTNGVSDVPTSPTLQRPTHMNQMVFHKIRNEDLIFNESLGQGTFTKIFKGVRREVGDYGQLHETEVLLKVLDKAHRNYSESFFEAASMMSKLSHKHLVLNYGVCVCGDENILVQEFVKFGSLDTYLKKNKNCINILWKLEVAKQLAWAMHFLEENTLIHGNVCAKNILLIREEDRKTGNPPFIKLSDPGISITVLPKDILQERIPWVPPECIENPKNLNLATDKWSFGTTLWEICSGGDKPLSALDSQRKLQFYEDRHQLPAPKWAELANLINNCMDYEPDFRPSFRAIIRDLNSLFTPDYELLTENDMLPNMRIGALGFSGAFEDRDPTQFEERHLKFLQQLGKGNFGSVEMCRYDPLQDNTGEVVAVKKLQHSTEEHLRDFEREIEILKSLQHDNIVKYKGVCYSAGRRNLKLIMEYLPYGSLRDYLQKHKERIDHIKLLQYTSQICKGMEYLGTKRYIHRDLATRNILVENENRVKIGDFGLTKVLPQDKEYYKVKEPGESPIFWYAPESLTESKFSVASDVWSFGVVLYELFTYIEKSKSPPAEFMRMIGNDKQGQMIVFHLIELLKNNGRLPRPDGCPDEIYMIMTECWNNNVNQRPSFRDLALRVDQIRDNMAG

[11] = target: MERTK (UniProt Q12866); assay: as above
Sequence of MERTK (Q12866 whole entry, looked up): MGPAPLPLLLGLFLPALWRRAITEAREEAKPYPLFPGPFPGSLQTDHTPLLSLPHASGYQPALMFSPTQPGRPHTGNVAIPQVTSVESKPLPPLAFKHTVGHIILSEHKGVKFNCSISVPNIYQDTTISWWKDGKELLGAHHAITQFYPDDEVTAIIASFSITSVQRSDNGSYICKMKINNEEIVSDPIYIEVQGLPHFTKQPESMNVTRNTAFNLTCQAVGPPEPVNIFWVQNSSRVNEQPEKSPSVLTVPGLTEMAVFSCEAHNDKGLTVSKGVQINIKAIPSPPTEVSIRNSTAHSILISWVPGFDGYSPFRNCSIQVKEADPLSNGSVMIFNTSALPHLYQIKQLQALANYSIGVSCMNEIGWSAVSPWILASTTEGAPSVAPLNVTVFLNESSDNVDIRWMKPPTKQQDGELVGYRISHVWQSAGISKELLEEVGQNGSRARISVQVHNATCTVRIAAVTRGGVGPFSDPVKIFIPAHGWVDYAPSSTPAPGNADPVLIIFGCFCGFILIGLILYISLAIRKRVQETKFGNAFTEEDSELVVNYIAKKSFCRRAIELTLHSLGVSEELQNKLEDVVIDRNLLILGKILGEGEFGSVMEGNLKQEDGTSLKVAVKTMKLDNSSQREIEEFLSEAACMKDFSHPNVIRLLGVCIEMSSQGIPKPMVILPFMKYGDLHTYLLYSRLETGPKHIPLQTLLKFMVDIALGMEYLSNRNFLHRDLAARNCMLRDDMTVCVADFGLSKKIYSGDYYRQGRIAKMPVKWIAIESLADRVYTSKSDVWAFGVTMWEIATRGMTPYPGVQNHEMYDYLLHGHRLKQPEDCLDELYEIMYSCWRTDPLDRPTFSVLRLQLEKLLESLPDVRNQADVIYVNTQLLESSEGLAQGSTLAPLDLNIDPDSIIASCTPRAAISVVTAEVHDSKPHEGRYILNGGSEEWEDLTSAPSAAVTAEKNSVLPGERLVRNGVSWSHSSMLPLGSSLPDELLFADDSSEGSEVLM

[12] = system: c-Abl (mouse); assay: as above
[13] = system: c-Src; assay: as above
[14] = target: Grb2 SH2 (UniProt P62993); assay: SH2 binding enrichment of the phosphorylated peptide, bacterial display (enrichment ratio); higher = better substrate or ligand; peptides without Tyr show the background
[15] = target: SHP2-C SH2; assay: as above
[16] = target: c-Src SH2; assay: as above
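Wherever SH2 binding enrichment of the phosphorylated peptide, bacterial display is given: peptide library displayed on the E. coli surface as eCPX fusions, selected cells deep-sequenced, score is each peptide's frequency after selection divided by its frequency in the input.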
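Wherever phosphorylation enrichment, bacterial display is given: 11-residue human phosphosite peptides and single-mutation variants displayed on the E. coli surface, counted by deep sequencing, each peptide's frequency after selection divided by its frequency in the unselected input library; frequency after pTyr selection over input frequency; kinase dosed for 20-30% of maximal phosphorylation in three min.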

Sequence of EPHB1 (P54762 whole entry, looked up): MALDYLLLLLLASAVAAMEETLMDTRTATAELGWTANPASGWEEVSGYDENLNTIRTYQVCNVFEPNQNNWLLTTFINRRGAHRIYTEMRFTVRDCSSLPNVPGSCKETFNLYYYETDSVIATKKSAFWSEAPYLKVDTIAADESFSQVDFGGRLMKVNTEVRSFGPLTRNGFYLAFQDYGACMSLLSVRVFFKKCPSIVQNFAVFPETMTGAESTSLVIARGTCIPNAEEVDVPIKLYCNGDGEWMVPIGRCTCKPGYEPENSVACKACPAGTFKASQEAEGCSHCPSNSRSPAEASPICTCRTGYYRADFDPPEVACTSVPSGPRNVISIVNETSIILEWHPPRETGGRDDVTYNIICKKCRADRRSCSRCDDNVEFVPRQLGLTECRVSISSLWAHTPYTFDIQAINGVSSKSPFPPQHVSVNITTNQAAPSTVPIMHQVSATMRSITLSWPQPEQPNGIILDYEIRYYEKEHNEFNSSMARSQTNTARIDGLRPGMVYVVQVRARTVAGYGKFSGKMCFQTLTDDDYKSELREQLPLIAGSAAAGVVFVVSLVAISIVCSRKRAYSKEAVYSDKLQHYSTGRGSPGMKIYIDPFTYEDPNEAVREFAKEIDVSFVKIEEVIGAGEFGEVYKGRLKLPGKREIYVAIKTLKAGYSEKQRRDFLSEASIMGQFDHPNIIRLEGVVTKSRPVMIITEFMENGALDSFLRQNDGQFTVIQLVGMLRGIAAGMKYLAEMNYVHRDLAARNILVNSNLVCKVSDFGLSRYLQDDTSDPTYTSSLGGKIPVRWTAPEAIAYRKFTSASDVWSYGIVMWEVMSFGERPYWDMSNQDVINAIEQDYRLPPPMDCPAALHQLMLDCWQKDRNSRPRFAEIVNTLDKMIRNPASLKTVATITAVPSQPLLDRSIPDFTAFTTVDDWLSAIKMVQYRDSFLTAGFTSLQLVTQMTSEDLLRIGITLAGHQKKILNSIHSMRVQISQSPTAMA

SH2 binding enrichment [14] | SH2 binding enrichment [15] | SH2 binding enrichment [16] | Sequence | phosphorylation enrichment [1] | phosphorylation enrichment [2] | phosphorylation enrichment [3] | phosphorylation enrichment [4] | phosphorylation enrichment [5] | phosphorylation enrichment [6] | phosphorylation enrichment [7] | phosphorylation enrichment [8] | phosphorylation enrichment [9] | phosphorylation enrichment [10] | phosphorylation enrichment [11] | phosphorylation enrichment [12] | phosphorylation enrichment [13]
0.762 | 0.797 | 10.6 | QRDSSYYWEIE [RAF1_Y340] | 1.3 | 2.77 | 1.14 | 3.91 | 3.03 | 0.536 | 1.09 | 2.12 | 0.981 | 1.13 | 3.5 | 0.744 | 1.95
0.768 | 0.592 | 0.434 | ACEVLYNIAFM [NCF2_Y125] | 2.01 | 0.983 | 0.859 | 0.976 | 1.49 | 5.68 | 1.53 | 1.97 | 2.45 | 1.11 | 2.03 | 2.57 | 2.17
1.02 | 0.648 | 0.699 | GDYYRSLAEVA [YWHAG_Y133_Y133S] | 1.3 | 1.68 | 1.09 | 5.42 | 3.26 | 0.419 | 0.75 | 0.916 | 1.36 | 1.45 | 0.663 | 1.82 | 0.664
1.64 | 1.59 | 1.11 | LLNAIYLSAKR [SERPING1_Y294_W299R] | 1.58 | 0.659 | 0.846 | 0.617 | 0.963 | 0.85 | 1.43 | 0.86 | 1.36 | 1.65 | 0.947 | 1.61 | 1.09
0.739 | 0.547 | 0.716 | NACGLYYKLHN [GATA2_Y376] | 1.5 | 1.13 | 0.774 | 1.43 | 1.48 | 0.56 | 1.3 | 0.504 | 1.21 | 2.27 | 2.29 | 0.922 | 1.54
0.835 | 0.707 | 0.825 | TRGLEYIVPLM [CLCN4_Y548_G544R] | 1.18 | 0.804 | 0.721 | 1.41 | 1.04 | 0.409 | 0.78 | 0.456 | 0.493 | 2.02 | 0.457 | 0.89 | 0.541
0.877 | 0.708 | 0.839 | MARDIYRASYY [ALK_Y1278] | 0.685 | 0.466 | 0.439 | 0.624 | 0.63 | 0.408 | 0.683 | 0.688 | 1.01 | 0.702 | 0.673 | 1.77 | 1.58

Sequence | SH2 binding enrichment [14] | SH2 binding enrichment [15] | SH2 binding enrichment [16] | phosphorylation enrichment [1] | phosphorylation enrichment [2] | phosphorylation enrichment [3] | phosphorylation enrichment [4] | phosphorylation enrichment [5] | phosphorylation enrichment [6] | phosphorylation enrichment [7] | phosphorylation enrichment [8] | phosphorylation enrichment [9] | phosphorylation enrichment [10] | phosphorylation enrichment [11] | phosphorylation enrichment [12] | phosphorylation enrichment [13]
SIKDKYVTAVF [KCNH2_Y611_L615V_YF] | 0.82 | 0.658 | 0.538 | 0.667 | 0.48 | 0.475 | 0.491 | 0.541 | 0.523 | 0.794 | 0.543 | 0.467 | 0.839 | 0.443 | 0.682 | 0.501
